# Bridge positions count the residues as written; N and C are the ends. Peptide text beside a SMILES is read from it.
# Tests used:
# NaV1.7 VSD IV = details: cited from earlier work
# From the text: (§1) NaV channel fast inactivation is controlled by the movement of the DIV voltage-sensing domain[17]. […] However, all these peptides share less than 50% similarity with Pre1a (See Fig. 1d) and have very differ ...
# hNaV1.3 = hNaV1.3 and hNaV1.1 peak current; cited from earlier work
# From the text: as §1
# hNaV1.1 [1] = target: T1, hNaV1.1 (Homo sapiens, UniProt P35498); details: hNaV1.3 and hNaV1.1 peak current; cited from earlier work
# From the text: as §1
# hNaV1.6 = hNaV1.6 (Homo sapiens, UniProt Q9UQD0); assay: QPatch automated patch clamp, HEK293 cells stably co-expressing hNaV1.6 and NaVβ1; type: cell-based; details: HEK, with NaVβ1, QPatch16, 5–10 min incubation, holding −100 mV; n ≥ 6; read-out: peak current inhibition IC50
# Experimental: (§2) For patch clamp analysis, HEK293 cells stably co-expressing the hNaV1.1, hNaV1.6, or hNaV1.7 α-subunit with the NaVβ1-subunit (SB Drug Discovery) were cultured following manufacturer guidelines. Cells were removed from culture at 70% confluency using Detachin (Genlantis) and resuspended to 5 × 10^6 cells/mL in Ex-Cell ACF CHO Medium (Life Technologies) supplemented with 25 mM HEPES (Sigma-Aldrich) and 1 × Glutamax (Life Technologies) before being transferred to the Q-Patch Q-Stirrer and allowed to recover for 30 min before assay.
# (§3) The external solution contained (in mM): 140 NaCl, 4 KCl, 2 CaCl2, 1 MgCl2, 10 HEPES, 20 TEA-Cl, 10 glucose, pH 7.4 (with NaOH) and adjusted to 315 mOsm 0.05% BSA was added to prevent adsorptive loss of peptide. The intracellular solution contained (in mM): 140 CsF, 1/5 EGTA/CsOH, 10 HEPES and 10 NaCl, pH 7.4 (with CsOH) and adjusted to 320 mOsm. Whole-cell patch-clamp experiments were performed at room temperature on a QPatch-16 automated electrophysiology platform (Biolin Scientific) using 16-channel planar patch chip plates (Q-Plates) with a patch hole diameter of 1 µm and resistance of 2 ± 0.1 MΩ. […] Pre1a concentrations were incubated for a fixed time of 5–10 min to allow steady-state activity, monitored by the I-T plot.
# hNaV1.7 [2] = target: T2, hNaV1.7 (Homo sapiens, UniProt Q15858); assay: Two-electrode voltage clamp, hNaV1.7 expressed in Xenopus oocytes; type: cell-based; parameters: expressed in transfected cells; host or cells: Xenopus laevis oocytes (cRNA injection, alpha subunit alone)
# Experimental: (§4) The preparation and injection of Xenopus laevis oocytes and NaV channel recordings using two-electrode voltage-clamp (TEVC) were carried out as described previously. Capped cRNA encoding rat NaV1.2, NaV1.3 and NaV1.4, and human NaV1.5 and NaV1.7 were injected at 20–40 ng of cRNA/oocyte and kept at 17–18 °C in ND96 solution containing (in mM) 96 NaCl, 2 KCl, 1 CaCl2, 2 MgCl2, 5 HEPES, 5 pyruvic acid, 50 µg/ml gentamicin (pH 7.4), and horse serum (2.5%). Membrane currents were recorded 2–5 days after injection. Oocytes were clamped at −90 mV and currents were elicited by a 50 ms depolarising step to −10 or 0 mV every 10 s for concentration response curves. Both peak and late current (50 ms post peak) were analysed. The concentration response curves were fitted to the Hill equation (GraphPad Prism 6). Current-voltage (I-V) relationships and voltage-dependence of fast inactivation were determined using a family of 100 ms conditioning pulses from −100 mV to +50 mV (+60 mV for rNaV1.3) in 5 mV steps, followed by a test depolarisation step to 0 mV with a 20 s sweep interval from a holding potential of −90 mV. […] The half-activation potential (V 1/2) was determined using a Boltzmann fit (GraphPad Prism 6). […]
# Target sequence in this assay (Q15858 whole entry): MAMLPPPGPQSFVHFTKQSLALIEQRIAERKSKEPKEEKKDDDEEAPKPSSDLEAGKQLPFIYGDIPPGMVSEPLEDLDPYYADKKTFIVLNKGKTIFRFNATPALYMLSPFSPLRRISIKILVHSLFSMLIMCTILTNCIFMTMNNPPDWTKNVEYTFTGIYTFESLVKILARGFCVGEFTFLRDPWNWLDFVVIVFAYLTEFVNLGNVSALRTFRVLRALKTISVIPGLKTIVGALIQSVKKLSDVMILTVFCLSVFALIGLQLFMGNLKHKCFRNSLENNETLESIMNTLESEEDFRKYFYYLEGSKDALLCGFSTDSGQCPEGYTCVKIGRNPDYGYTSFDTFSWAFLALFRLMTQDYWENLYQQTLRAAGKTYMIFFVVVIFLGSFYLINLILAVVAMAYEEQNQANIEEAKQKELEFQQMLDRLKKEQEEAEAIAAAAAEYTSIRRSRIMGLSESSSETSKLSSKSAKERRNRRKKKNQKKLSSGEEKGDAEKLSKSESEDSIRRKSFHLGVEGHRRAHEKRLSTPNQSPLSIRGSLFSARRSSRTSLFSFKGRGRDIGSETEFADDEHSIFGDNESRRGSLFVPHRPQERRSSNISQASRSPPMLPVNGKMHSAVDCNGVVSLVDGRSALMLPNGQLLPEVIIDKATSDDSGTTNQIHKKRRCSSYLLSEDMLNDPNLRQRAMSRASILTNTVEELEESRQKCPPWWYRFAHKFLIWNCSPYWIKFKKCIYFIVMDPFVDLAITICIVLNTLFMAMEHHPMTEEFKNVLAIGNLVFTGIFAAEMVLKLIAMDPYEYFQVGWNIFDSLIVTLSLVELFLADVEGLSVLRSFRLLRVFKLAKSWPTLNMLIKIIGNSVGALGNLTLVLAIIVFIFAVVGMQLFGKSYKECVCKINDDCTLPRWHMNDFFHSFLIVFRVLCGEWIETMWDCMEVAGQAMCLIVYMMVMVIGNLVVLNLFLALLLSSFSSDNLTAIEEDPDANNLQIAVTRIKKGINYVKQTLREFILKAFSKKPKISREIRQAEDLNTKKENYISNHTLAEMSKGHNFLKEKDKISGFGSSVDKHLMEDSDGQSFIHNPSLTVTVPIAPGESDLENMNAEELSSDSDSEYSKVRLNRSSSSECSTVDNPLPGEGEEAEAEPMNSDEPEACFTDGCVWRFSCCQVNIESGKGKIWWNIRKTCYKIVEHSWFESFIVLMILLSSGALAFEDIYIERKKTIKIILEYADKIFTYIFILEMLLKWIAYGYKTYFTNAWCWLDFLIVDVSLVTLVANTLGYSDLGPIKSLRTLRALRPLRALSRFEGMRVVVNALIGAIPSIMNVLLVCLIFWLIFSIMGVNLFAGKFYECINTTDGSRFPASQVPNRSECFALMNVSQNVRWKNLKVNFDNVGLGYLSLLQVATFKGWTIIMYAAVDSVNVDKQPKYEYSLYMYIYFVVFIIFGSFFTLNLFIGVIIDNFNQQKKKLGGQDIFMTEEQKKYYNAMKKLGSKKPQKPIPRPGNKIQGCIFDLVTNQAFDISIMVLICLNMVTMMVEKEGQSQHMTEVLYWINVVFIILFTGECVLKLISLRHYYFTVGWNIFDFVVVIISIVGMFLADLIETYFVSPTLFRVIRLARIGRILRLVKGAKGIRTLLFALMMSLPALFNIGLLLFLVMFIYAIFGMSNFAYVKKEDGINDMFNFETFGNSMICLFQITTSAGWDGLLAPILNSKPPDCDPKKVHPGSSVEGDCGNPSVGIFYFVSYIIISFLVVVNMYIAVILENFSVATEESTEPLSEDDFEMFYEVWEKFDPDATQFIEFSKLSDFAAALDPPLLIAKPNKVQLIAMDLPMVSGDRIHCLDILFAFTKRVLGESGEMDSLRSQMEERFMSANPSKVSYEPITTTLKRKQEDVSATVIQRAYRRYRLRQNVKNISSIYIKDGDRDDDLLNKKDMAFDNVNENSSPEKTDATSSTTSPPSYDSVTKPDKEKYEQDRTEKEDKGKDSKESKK
# hNaV1.7 [3] = target: T2, hNaV1.7; assay: QPatch automated patch clamp, HEK293 cells stably co-expressing hNaV1.7 and NaVβ1; type: cell-based
# Experimental: as §2, §3
# Target sequence in this assay (Q07699 19-218): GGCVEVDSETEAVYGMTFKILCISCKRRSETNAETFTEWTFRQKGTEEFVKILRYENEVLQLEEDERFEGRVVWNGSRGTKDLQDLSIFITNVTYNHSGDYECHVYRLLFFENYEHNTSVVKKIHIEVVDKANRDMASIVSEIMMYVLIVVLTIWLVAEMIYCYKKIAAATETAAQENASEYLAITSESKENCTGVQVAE
# Target sequence in this assay (Q15858 whole entry): as the sequence (Q15858 whole entry) above
# rNaV1.3 = target: T3, rNaV1.3 (Rattus norvegicus, UniProt P08104); assay: Two-electrode voltage clamp, rNaV1.3 expressed in Xenopus oocytes; type: cell-based
# T3 construct: expressed in transfected cells; host or cells: Xenopus laevis oocytes (cRNA injection, alpha subunit alone)
# T3 sequence (P08104 whole entry): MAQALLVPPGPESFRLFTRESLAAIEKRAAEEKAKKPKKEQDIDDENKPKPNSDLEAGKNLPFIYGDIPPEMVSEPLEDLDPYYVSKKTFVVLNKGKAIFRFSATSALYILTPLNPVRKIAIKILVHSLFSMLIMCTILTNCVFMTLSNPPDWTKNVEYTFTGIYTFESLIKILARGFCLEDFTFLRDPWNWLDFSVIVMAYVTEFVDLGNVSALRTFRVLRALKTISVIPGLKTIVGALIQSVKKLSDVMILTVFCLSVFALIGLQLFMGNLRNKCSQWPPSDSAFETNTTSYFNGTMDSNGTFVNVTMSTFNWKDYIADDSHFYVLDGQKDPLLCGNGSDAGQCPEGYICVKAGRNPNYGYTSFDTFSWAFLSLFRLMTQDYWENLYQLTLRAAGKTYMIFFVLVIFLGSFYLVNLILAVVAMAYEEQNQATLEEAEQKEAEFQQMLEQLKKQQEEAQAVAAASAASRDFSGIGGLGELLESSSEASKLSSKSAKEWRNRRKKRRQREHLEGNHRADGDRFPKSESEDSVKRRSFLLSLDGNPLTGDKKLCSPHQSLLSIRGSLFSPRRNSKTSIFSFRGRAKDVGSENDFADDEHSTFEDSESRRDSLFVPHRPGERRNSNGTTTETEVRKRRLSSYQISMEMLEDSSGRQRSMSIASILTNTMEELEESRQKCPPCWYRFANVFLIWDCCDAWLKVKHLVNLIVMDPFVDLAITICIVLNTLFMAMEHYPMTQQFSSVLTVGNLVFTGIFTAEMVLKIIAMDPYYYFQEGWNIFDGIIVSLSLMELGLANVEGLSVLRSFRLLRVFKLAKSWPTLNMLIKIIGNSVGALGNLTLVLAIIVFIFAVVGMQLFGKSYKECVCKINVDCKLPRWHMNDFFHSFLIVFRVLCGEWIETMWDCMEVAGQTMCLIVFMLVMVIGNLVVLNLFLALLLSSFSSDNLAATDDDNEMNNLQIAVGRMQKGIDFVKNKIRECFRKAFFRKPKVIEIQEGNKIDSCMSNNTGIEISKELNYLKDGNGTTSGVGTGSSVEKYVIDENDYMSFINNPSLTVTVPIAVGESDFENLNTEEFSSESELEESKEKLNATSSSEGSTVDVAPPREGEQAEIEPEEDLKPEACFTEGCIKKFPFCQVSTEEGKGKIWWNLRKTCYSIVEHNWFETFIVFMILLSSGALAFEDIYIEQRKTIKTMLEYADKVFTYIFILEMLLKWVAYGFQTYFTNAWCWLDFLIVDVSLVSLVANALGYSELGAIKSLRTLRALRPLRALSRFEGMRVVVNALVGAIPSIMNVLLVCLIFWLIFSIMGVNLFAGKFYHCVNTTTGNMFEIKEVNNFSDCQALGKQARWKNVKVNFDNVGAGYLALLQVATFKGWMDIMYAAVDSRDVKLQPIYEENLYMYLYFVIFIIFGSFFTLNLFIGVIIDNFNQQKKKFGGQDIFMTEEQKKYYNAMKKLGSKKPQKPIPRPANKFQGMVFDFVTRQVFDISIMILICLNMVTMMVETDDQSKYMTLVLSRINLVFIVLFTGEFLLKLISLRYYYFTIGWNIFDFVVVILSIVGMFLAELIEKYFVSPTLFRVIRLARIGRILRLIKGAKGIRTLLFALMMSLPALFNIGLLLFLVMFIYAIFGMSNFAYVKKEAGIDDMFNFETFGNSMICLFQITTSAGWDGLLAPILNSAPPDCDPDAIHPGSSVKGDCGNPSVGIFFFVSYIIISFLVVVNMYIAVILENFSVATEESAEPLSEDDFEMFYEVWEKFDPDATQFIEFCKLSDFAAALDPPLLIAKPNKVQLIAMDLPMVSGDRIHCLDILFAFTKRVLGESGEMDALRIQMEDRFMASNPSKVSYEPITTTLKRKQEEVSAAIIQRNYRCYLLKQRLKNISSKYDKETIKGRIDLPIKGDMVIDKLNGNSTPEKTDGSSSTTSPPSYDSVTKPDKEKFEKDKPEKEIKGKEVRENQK
# From the text: We analysed the rate of fast inactivation (defined as tau, τinact, or the time to reach 36.8% of a single exponential fit of the current decay) and the degree of persistent sodium current measured at 50 ms of depolarisation (NaV1.2 and 1.7) and 100 ms for rNaV1.3 due to the longer time required to reach complete inactivation in the oocyte expression system without β1.
# The preparation and injection of Xenopus laevis oocytes and NaV channel recordings using two-electrode voltage-clamp (TEVC) were carried out as described previously. Capped cRNA encoding rat NaV1.2, NaV1.3 and NaV1.4, and human NaV1.5 and NaV1.7 were injected at 20–40 ng of cRNA/oocyte and kept at 17–18 °C in ND96 solution containing (in mM) 96 NaCl, 2 KCl, 1 CaCl2, 2 MgCl2, 5 HEPES, 5 pyruvic acid, 50 µg/ml gentamicin (pH 7.4), and horse serum (2.5%). Membrane currents were recorded 2–5 days after injection. Oocytes were clamped at −90 mV and currents were elicited by a 50 ms depolarising step to −10 or 0 mV every 10 s for concentration response curves. Both peak and late current (50 ms post peak) were analysed. The concentration response curves were fitted to the Hill equation (GraphPad Prism 6). Current-voltage (I-V) relationships and voltage-dependence of fast inactivation were determined using a family of 100 ms conditioning pulses from −100 mV to +50 mV (+60 mV for rNaV1.3) in 5 mV steps, followed by a test depolarisation step to 0 mV with a 20 s sweep interval from a holding potential of −90 mV. To determine the voltage-dependence of activation non-normalised peak current was used from the I-V family to calculate channel conductance using the equation: G(V) = I/(V − V rev), in which I, V, and V rev represent inward NaV current, test potential, and reversal potential, respectively. The half-activation potential (V 1/2) was determined using a Boltzmann fit (GraphPad Prism 6). All data points are shown as the pIC50 ± S.E.M., as well as the IC50. Replicates (n) represent separate experimental oocytes. Pre1a was resuspended in ND96 solution containing 0.1% bovine serum albumin for all activity analysis. […]
# rNaV1.2 = target: T4, rNaV1.2 (Rattus norvegicus, UniProt P04775); assay: Two-electrode voltage clamp, rNaV1.2 expressed in Xenopus oocytes; type: cell-based; details: α-subunit alone, clamped at −90 mV, 50 ms step to −10 or 0 mV, recombinant Pre1a, n ≥ 5, read-out: peak current inhibition IC50
# T4 construct: expressed in transfected cells; host or cells: Xenopus laevis oocytes (cRNA injection, alpha subunit alone)
# Experimental: as §4
# hNaV1.1 [4] = target: T1, hNaV1.1; assay: QPatch automated patch clamp, HEK293 cells stably co-expressing hNaV1.1 and NaVβ1; type: cell-based; details: HEK
# Experimental: as §2, §3
# NaV channel DII = details: mutagenesis; cited from earlier work
# From the text: The striking differences in effects on NaV1.1, 1.2 and 1.3 are of particular significance for understanding the molecular basis of Pre1a’s subtype selectivity as these three channels have essentially identical S3-S4 linker regions in both DII and DIV (Fig. 7a) (note that NaV1.1 DII S3-S4 has an M to V ...
# NaV channels = details: cited from earlier work
# From the text: These VSD modulating peptides have been described to modify channel gating in three distinct ways depending on the domain they target and the effect on that domain[17]. Domain IV of the NaV channel α-subunit uniquely controls inactivation of the channel, thus spider peptides that interact with and hinder the normal function of VSDIV slow or inhibit fast inactivation of the channel and may result in persistent current. Conversely, spider venom peptides that interact with DI, DII, and DIII VSD modulate channel activation. Most of those discovered to date cause a shift in the voltage- ... || NaV channel fast inactivation is controlled by the movement of the DIV voltage-sensing domain[17]. […] However, all these peptides share less than 50% similarity with Pre1a (See Fig. 1d) and have very differ ...
# [5] = target: rat NaV1.2 α-subunit (rat) (UniProt P04775)
# [6] = target: human NaV1.7 α-subunit (in oocytes) (human) (UniProt Q15858)
# human NaV1.7 α-subunit (in oocytes) (human), sequence (Q15858 whole entry): as the sequence (Q15858 whole entry) above
# [7] = target: human NaV1.5 α-subunit (human) (UniProt Q14524)
# [8] = target: rat NaV1.4 α-subunit (rat) (UniProt P15390)
# [9] = target: rat NaV1.3 α-subunit (rat) (UniProt P08104)
# rat NaV1.3 α-subunit (rat), sequence (P08104 whole entry): as the sequence (P08104 whole entry) above
# [10] = target: rat NaV1.3 α-subunit (rat) (UniProt P08104); remark: listed apart in the source
# [11] = target: rat NaV1.3 α-subunit (rat) (UniProt P08104); remark: listed apart in the source
# [12] = target: human NaV1.6 α-subunit (in HEK293 cells) (human) (UniProt Q9UQD0)
# [13] = target: human NaV1.1 α-subunit (in HEK293 cells) (human) (UniProt P35498)
# [14] = target: human NaV1.7 α-subunit (in HEK293 cells) (human) (UniProt Q15858)
# human NaV1.7 α-subunit (in HEK293 cells) (human), sequence (Q15858 whole entry): as the sequence (Q15858 whole entry) above
# [15] = target: KV2.1 chimaera with the S3-S4 linker region of hNaV1.7 DII
# [16] = target: KV2.1 chimaera with the S3-S4 linker region of hNaV1.7 DIV
# [17] = target: human NaV1.1 α-subunit (in HEK293 cells) (human) (UniProt P35498); remark: listed apart in the source
# [18] = target: rat NaV1.2 α-subunit (rat) (UniProt P04775); remark: listed apart in the source
# [19] = target: human NaV1.7 α-subunit (in oocytes) (human) (UniProt Q15858); remark: listed apart in the source
# [20] = target: rat NaV1.3 α-subunit (rat) (UniProt P08104); remark: listed apart in the source
molecule,measurement,setting,value
CCN1CC(n2nccc2-c2cc(C(F)(F)F)ccc2Oc2ccc(S(=O)(=O)Nc3ncns3)cc2C#N)C1 [GX-936],state in which VSD is arrested,NaV1.7 VSD IV,arrests the VSD in the inactivated state
O=C(Nc1ccc(S(=O)(=O)Nc2nccs2)cc1)C(c1ccccc1)c1ccccc1 [ICA-121431],selectivity,hNaV1.3,~ 1000 fold
same,selectivity,hNaV1.1 [1],~ 1000 fold
"CC[C@H](C)[C@H](NC(=O)[C@H](CCCCN)NC(=O)[C@H](Cc1ccc(O)cc1)NC(=O)[C@H](CCCCN)NC(=O)[C@@H]1CSSC[C@@H]2NC(=O)[C@H](CCCCN)NC(=O)[C@H](CC(=O)O)NC(=O)[C@H](CC(N)=O)NC(=O)[C@H](CCCCN)NC(=O)[C@@H]3CCCN3C(=O)[C@H](CO)NC(=O)[C@@H]3CSSC[C@H](NC(=O)[C@H](CCCCN)NC(=O)[C@H](Cc4ccc(O)cc4)NC(=O)[C@H](CC(N)=O)NC(=O)[C@@H]4CCCN4C(=O)[C@H](CSSC[C@H](NC(=O)[C@H](CC(=O)O)NC(=O)[C@@H](N)CCC(=O)O)C(=O)N[C@@H](CC(C)C)C(=O)NCC(=O)N[C@@H](Cc4c[nH]c5ccccc45)C(=O)N[C@@H](Cc4ccccc4)C(=O)N[C@@H](CO)C(=O)N[C@@H](CCCNC(=N)N)C(=O)N3)NC2=O)C(=O)N[C@@H](CO)C(=O)N[C@@H](CO)C(=O)N[C@@H](CCCCN)C(=O)N[C@@H](CC(=O)O)C(=O)N[C@@H](CC(C)C)C(=O)N[C@@H](Cc2c[nH]c3ccccc23)C(=O)N1)C(=O)N[C@@H](Cc1c[nH]c2ccccc12)C(=O)O [Pre1a] (H-EDCLGWFSRCSPKNDKCCPNYKCSSKDLWCKYKIW-OH; disulfide 3-18, 10-23, 17-30)",IC50,hNaV1.6,0.222 µM
same,IC50,hNaV1.7 [2],0.114 µM
same,selectivity for inhibiting activation over NaV1.3,hNaV1.7 [2]; NaV1.7 activation vs NaV1.3,~ 70 fold
same,IC50,hNaV1.7 [3],0.0151 µM
same,EC50,"rNaV1.3; late current at 100 ms, ± S.E.M.",0.0457 µM
same,selectivity for inhibiting inactivation over activation,rNaV1.3; rNaV1.3 inactivation vs activation,more than 150 fold
same,IC50,"rNaV1.3; recombinant Pre1a, ± S.E.M., read-out: peak current inhibition pIC50 (converted)",7.94 µM
same,IC50,rNaV1.2,0.19 µM
same,IC50,"hNaV1.1 [4]; QPatch16, read-out: peak current inhibition pIC50 (converted)",0.0575 µM
same,EC50,"hNaV1.1 [4]; late current at 10 ms from peak, read-out: inhibition of fast inactivation pEC50 (converted)",0.0417 µM
HwTxIV,effect of divergent residues in S2 region 1 on activity,NaV channel DII,little effect on the activity
ProTx-II: spider peptide,effect on peak current and fast inactivation,NaV channels,inhibit both peak current and fast inactivation of NaV channels
recombinant β/δ-TRTX-Pre1a (peptide),"IC50 of inhibition of peak inward current, two-electrode voltage clamp, Xenopus oocytes",[5],0.19 µM
same,"IC50 of inhibition of peak inward current, two-electrode voltage clamp, Xenopus oocytes",[6],0.114 µM
same,"percent inhibition of peak current amplitude by 1 μM Pre1a (weak), two-electrode voltage clamp, Xenopus oocytes",[7],8.6%
same,"percent inhibition of peak current amplitude by 1 μM Pre1a (weak), two-electrode voltage clamp, Xenopus oocytes",[8],16.5%
same,"IC50 of inhibition of peak inward current (weak), two-electrode voltage clamp, Xenopus oocytes",[9],8 µM
same,"EC50 of inhibition of inactivation (late current at 100 ms), two-electrode voltage clamp, Xenopus oocytes",[10],0.0455 µM
same,"EC50 of inhibition of inactivation (late current), as printed in the legend, Xenopus oocytes",[11],0.045 µM
β/δ-TRTX-Pre1a (synthetic or recombinant not stated for the experiment) (peptide),"IC50 of inhibition of peak current, QPatch16 automated patch clamp, HEK cells",[12],0.222 µM
same,"IC50 of inhibition of peak current, QPatch16 automated patch clamp, HEK cells",[13],0.0571 µM
same,"IC50 of inhibition of peak current, QPatch16 automated patch clamp, HEK cells",[14],0.015 µM
same,percent inhibition of outward (peak) current by 1 μM Pre1a,[15],44%
same,percent inhibition of outward (peak) current by 1 μM Pre1a,[16],27.1%
same,"EC50 of inhibition of fast inactivation (late current at 10 ms from peak), QPatch, HEK cells",[17],0.0414 µM
same,"shift of the V1/2 of activation by 1 µM Pre1a, Xenopus oocytes",[18],14.9 mV
same,"shift of the V1/2 of activation by 1 µM Pre1a, Xenopus oocytes",[19],13.8 mV
same,"shift of the V1/2 of activation of the late current by 1 μM Pre1a, Xenopus oocytes",[20],9.6 mV
